# Experimental data as given in patent publication US20200308286A1, “METHODS, COMPOSITIONS, AND KITS FOR TREATMENT OF CANCER” (Fusion Pharmaceuticals, Inc., priority 2017, published 2020).
# Columns and labels:
# [1] = test system: human UM-UC-1 bladder cancer cell line; test: Conditional survival study (tumor growth delay) in UM-UC-1 bladder cancer xenograft mice; assay type: in vivo; settings: administered as single agent
# Protocol: Efficacy was assessed using tumor growth delay in a conditional survival study.
# other FGFRs = settings: cited from earlier work
# [2] = test system: cancers expressing both wild-type and genetically activated forms of FGFR3; settings: Du 2011; cited from earlier work
# [3] = Phase 1b/2 study of B-701 and docetaxel in advanced UCC, Cohort 1: safety; settings: Cohort 1, n=19, B-701 given with docetaxel
# Protocol: Docetaxel was administered intravenously over approximately 60 minutes at a dosage of 75 mg/m^2. […] Administration was carried out every 3 weeks (q3w). […] The primary objective was to evaluate progression-free survival (PFS) and safety. Secondary objectives included evaluation of overall response rate (ORR), duration of response (DOR), disease control rate (DCR), and overall survival (OS). Each of these objectives was evaluated for correlations with FGFR3 expression and/or FGFR3 mutations/fusions.
# [4] = resolved after docetaxel was discontinued
molecule,measurement,setting,value
CC(=O)O[C@H]1C(=O)[C@@]2(C)[C@H]([C@H](OC(=O)c3ccccc3)[C@]3(O)C[C@H](OC(=O)[C@H](O)[C@@H](NC(=O)c4ccccc4)c4ccccc4)C(C)=C1C3(C)C)[C@]1(OC(C)=O)CO[C@@H]1C[C@@H]2O [paclitaxel],survival of tumor bearing UM-UC-1 xenograft mice,[1],significantly extended survival
Nc1ccn([C@@H]2O[C@H](CO)[C@@H](O)C2(F)F)c(=O)n1 [gemcitabine],survival of tumor bearing UM-UC-1 xenograft mice,[1],significantly extended survival
"B-701: human FGFR3 antagonistic monoclonal antibody MFGR1877S (CAS No. 1312305-12-6), human IgG1 backbone; heavy chain SEQ ID NO:9, light chain SEQ ID NO:10",survival of tumor bearing UM-UC-1 xenograft mice,[1],significantly extended survival
same,cross-reactivity with other FGFRs,other FGFRs,no cross-reactivity
same,efficacy,[2],efficacious
same,"Grade 3 or higher AE related to B-701: Colitis, # of subjects",[3],1 subjects
same,"Grade 3 or higher AE related to B-701: Colitis, % of subjects",[3],(5%)
same,"Grade 3 or higher AE related to B-701: DIC, # of subjects",[3],1 subjects
same,"Grade 3 or higher AE related to B-701: DIC, % of subjects",[3],(5%)
same,"Grade 3 or higher AE related to B-701: Decreased WBCs, # of subjects",[3],2 subjects
same,"Grade 3 or higher AE related to B-701: Decreased WBCs, % of subjects",[3],(11%)
same,"Grade 3 or higher AE related to B-701: Decreased lymphocytes, # of subjects",[3],1 subjects
same,"Grade 3 or higher AE related to B-701: Decreased lymphocytes, % of subjects",[3],(5%)
same,"Grade 3 or higher AE related to B-701: Decreased neutrophil count, # of subjects",[3],4 subjects
same,"Grade 3 or higher AE related to B-701: Decreased neutrophil count, % of subjects",[3],(21%)
same,"Grade 3 or higher AE related to B-701: Diarrhea, # of subjects",[3],1 subjects
same,"Grade 3 or higher AE related to B-701: Diarrhea, % of subjects",[3],(5%)
same,"Grade 3 or higher AE related to B-701: Fatigue, # of subjects",[3],1 subjects
same,"Grade 3 or higher AE related to B-701: Fatigue, % of subjects",[3],(5%)
same,"Grade 3 or higher AE related to B-701: Hyponatremia, # of subjects",[3],1 subjects
same,"Grade 3 or higher AE related to B-701: Hyponatremia, % of subjects",[3],(5%)
same,"Grade 3 or higher AE related to B-701: Thrombocytopenia, # of subjects",[3],1 subjects
same,"Grade 3 or higher AE related to B-701: Thrombocytopenia, % of subjects",[3],(5%)
same,"Grade 3 or higher AE related to B-701: ALT elevation, # of subjects",[3]; [4],1 subjects
same,"Grade 3 or higher AE related to B-701: ALT elevation, % of subjects",[3]; [4],(5%)
same,"Grade 3 or higher AE related to B-701: AST elevation, # of subjects",[3]; [4],1 subjects
same,"Grade 3 or higher AE related to B-701: AST elevation, % of subjects",[3]; [4],(5%)
